Source: PMC9346500 (EMBO Reports, 2022)

B1: UBQLN2 450–624 (domain or fragment, UniProt Q9UHD9 450-624, looked up)
chain: RAMQALMQIQQGLQTLATEAPGLIPSFTPGVGVGVLGTAIGPVGPVTPIGPIGPIVPFTPIGPIGPIGPTGPAAPPGSTGSGGPTGPTVSSAAPSETTSPTSESGPNQQFIQQMVQALAGANAPQLPNPEVRFQQQLEQLNAMGFLNREANLQALIATGGDINAAIERLLGSQPS
B2: fluorescently-labeled UBQLN2 450–624 (S624C, Alexa Fluor 488) (domain or fragment, UniProt Q9UHD9 450-624, looked up)
chain: RAMQALMQIQQGLQTLATEAPGLIPSFTPGVGVGVLGTAIGPVGPVTPIGPIGPIVPFTPIGPIGPIGPTGPAAPPGSTGSGGPTGPTVSSAAPSETTSPTSESGPNQQFIQQMVQALAGANAPQLPNPEVRFQQQLEQLNAMGFLNREANLQALIATGGDINAAIERLLGSQPC
modifications: Alexa Fluor 488 C5 Maleimide on the cysteine of S624C

Experiments:
[1] = biological target: T1, M1-linked tetraubiquitin (M1-Ub4) (UniProt P0CG48 1-76; P0CG48 1-76; P0CG48 1-76; P0CG48 1-76); experiment: NMR titration
T1 sequence (P0CG48 1-304, one chain of several): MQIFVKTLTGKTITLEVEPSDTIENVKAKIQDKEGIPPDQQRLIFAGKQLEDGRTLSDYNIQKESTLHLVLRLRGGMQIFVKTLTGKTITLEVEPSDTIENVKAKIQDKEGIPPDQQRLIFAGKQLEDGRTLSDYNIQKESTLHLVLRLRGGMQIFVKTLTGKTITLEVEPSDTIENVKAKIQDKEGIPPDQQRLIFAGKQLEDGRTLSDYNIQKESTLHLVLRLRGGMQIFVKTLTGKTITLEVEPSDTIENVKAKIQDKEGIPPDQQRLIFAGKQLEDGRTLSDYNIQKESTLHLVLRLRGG

[2] = biological target: HOTag6-G10-Ub (designed tetrameric ubiquitin construct); experiment: NMR titration
[3] = biological target: T1, M1-linked tetraubiquitin (M1-Ub4); experiment: fluorescence polarisation
[4] = biological target: HOTag6-G10-Ub (designed tetrameric ubiquitin construct); experiment: fluorescence polarisation
ubiquitin (Ub) = ubiquitin (Ub) (UniProt P0CG48 1-76); experiment: fluorescence polarisation

Binder	Kd [1]	Kd [2]	Kd [3]	Kd [4]	Kd (ubiquitin (Ub))
B1	12.8 µM	8.8 µM			
B2			5.1 µM	7 µM	3.4 µM
